According to article PMC11276676:
Blank lines part the entries; values can stand above or below the substance they belong to.

Legend:
Assay in all cases: AUC; sedimentation velocity, absorbance detection, 20 °C, 20 mM Hepes-NaOH with 1 mM TCEP, without (pH 6.79) or with (pH 6.87) 150 mM NaCl, 42,000 rpm, protein 1.30-1.53 and 2.73-5.98 µM; monomer to dimer
[1] = biological target: Helicobacter pylori adenylosuccinate synthetase with His6-tag fused on its N-terminus (Helicobacter pylori (reference strain 26695)) (UniProt P56137)
[2] = biological target: Helicobacter pylori adenylosuccinate synthetase with His6-tag on the C-terminus (Helicobacter pylori (reference strain 26695)) (UniProt P56137)
[3] = biological target: wild-type Helicobacter pylori adenylosuccinate synthetase (Helicobacter pylori (reference strain 26695)) (UniProt P56137)

stoichiometry N [1]: 2
Substance: Helicobacter pylori adenylosuccinate synthetase with His6-tag fused on its N-terminus (from UniProt P56137 1-411) (enzyme)

stoichiometry N [2]: 2
Substance: Helicobacter pylori adenylosuccinate synthetase with His6-tag on the C-terminus (from UniProt P56137 1-411) (enzyme)

stoichiometry N [3]: 2
Substance: wild-type Helicobacter pylori adenylosuccinate synthetase (from UniProt P56137 1-411) (enzyme)
